The supplement of paper PMC10724198
± gives the standard deviation of the averaged measurements.

Columns and labels:
Saccharomyces cerevisiae [1] = assay: protein stability index of tFT-peptide fusion (C-terminal peptide) (PSI (0-1 scale)); higher = more stable (slower turnover)
Experimental: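 MPS profiling in S. cerevisiae of the tFT-X12 degron library: putative degron peptides plus stable controls, 12 aa, fused to the C-terminus of a sfGFP-mCherry timer. Cells are FACS-sorted into 8 mCherry/sfGFP bins and deep-sequenced. PSI runs from 0 (unstable) to 1 (stable). Backgrounds are wild type, das1Δ and doa10Δ at 30 °C, and wild type, das1Δ, cdc34-1 and cdc53-1 at 37 °C; 2-3 technical replicates each.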

Saccharomyces cerevisiae [2] = assay: as above; conditions: genetic background: wild type; temperature: 30 C
[3] = genetic background: cdc34-1, temperature: 37 C
[4] = genetic background: cdc53-1, temperature: 37 C
[5] = genetic background: das1 deletion, temperature: 30 C
[6] = genetic background: das1 deletion, temperature: 37 C
[7] = genetic background: doa10 deletion, temperature: 30 C
[8] = genetic background: wild type, temperature: 30 C
[9] = genetic background: wild type, temperature: 37 C
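Also: PSI is a weighted mean of sequencing reads over stability bins, variants kept only with over 10 reads, mCherry proximal and sfGFP distal, peptide attached via GGGS linker.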

Sequence	protein stability index (Saccharomyces cerevisiae [1]; [3])	protein stability index (Saccharomyces cerevisiae [1]; [4])	protein stability index (Saccharomyces cerevisiae [1]; [5])	protein stability index (Saccharomyces cerevisiae [1]; [6])	protein stability index (Saccharomyces cerevisiae [1]; [7])	protein stability index (Saccharomyces cerevisiae [1]; [8])	protein stability index (Saccharomyces cerevisiae [1]; [9])	protein stability index (Saccharomyces cerevisiae [2])
LPILFPAALRLY	0.552 ± 0.0097	0.577 ± 0.028	0.521 ± 0.025	0.604 ± 0.01	0.267 ± 0.013	0.285 ± 0.026	0.455 ± 0.029	0.44 ± 0.02
LPPPYSPRLFHN	0.552 ± 0.065	0.7103 ± 0.0065	0.699 ± 0.014	0.755 ± 0.022	0.146 ± 0.016	0.166 ± 0.016	0.265 ± 0.01	0.241 ± 0.1
LPTVSRPGALIC	0.562 ± 0.016	0.689 ± 0.032	0.626 ± 0.033	0.69 ± 0.011	0.144 ± 0.0049	0.192 ± 0.02	0.34 ± 0.038	0.253 ± 0.013
LRCRAATSRTVS	0.69 ± 0.029	0.738 ± 0.015	0.6731 ± 0.002	0.726 ± 0.03	0.391 ± 0.015	0.446 ± 0.025	0.643 ± 0.0087	0.504 ± 0.04
LRNYKCLRLLIC	0.293 ± 0.009	0.476 ± 0.0082	0.394 ± 0.028	0.545 ± 0.022	0.0736 ± 0.0054	0.0688 ± 0.012	0.0753 ± 0.012	0.0682 ± 0.096
LRPTFLLLFRPL	0.292 ± 0.022	0.283 ± 0.037	0.377 ± 0.032	0.474 ± 0.011	0.618 ± 0.004	0.407 ± 0.017	0.4302 ± 0.0023	0.493 ± 0.096
LRSLLIIYLLIF	0.2561 ± 0.0023	0.292 ± 0.025	0.253 ± 0.038	0.404 ± 0.0084	0.203 ± 0.0043	0.192 ± 0.0044	0.31 ± 0.012	0.279 ± 0.039
LSACYSRYVFVS	0.398 ± 0.039	0.553 ± 0.038	0.472 ± 0.016	0.60517 ± 0.00057	0.0584 ± 0.017	0.093 ± 0.023	0.115 ± 0.012	0.135 ± 0.0089
LSASFYFVFFSN	0.56 ± 0.013	0.6731 ± 0.0018	0.506 ± 0.023	0.6287 ± 0.006	0.155 ± 0.032	0.188 ± 0.0085	0.383 ± 0.021	0.292 ± 0.043
LSILLFVQFFPP	0.317 ± 0.023	0.371 ± 0.0032	0.27 ± 0.021	0.4113 ± 0.00046	0.24 ± 0.0013	0.253 ± 0.012	0.384 ± 0.0082	0.305 ± 0.0053
LSLPTPLPSPPA	0.656 ± 0.044	0.695 ± 0.041	0.457 ± 0.027	0.629 ± 0.015	0.449 ± 0.019	0.456 ± 0.017	0.591 ± 0.0092	0.48 ± 0.022
LSPLSPLLFRLI	0.482 ± 0.04	0.509 ± 0.012	0.516 ± 0.055	0.62 ± 0.018	0.249 ± 0.0059	0.226 ± 0.013	0.37479 ± 6.6e-05	0.296 ± 0.016
LSRLIFKVSVLM	0.57 ± 0.0078	0.602 ± 0.0096	0.504 ± 0.026	0.5999 ± 0.0032	0.237 ± 0.032	0.231 ± 0.025	0.416 ± 0.038	0.445 ± 0.015
LSRRFSLALFWT	0.57 ± 0.016	0.683 ± 0.051	0.654 ± 0.0085	0.707 ± 0.026	0.1762 ± 0.0015	0.197 ± 0.031	0.317 ± 0.0078	0.279 ± 0.012
LSSRGGRCRRLV	0.714 ± 0.059	0.727 ± 0.028	0.652 ± 0.016	0.7555 ± 0.0039	0.321 ± 0.0092	0.37 ± 0.013	0.588 ± 0.017	0.481 ± 0.037
LVFAFFLLSFFI	0.478 ± 0.035	0.554 ± 0.015	0.478 ± 0.047	0.549 ± 0.00087	0.481 ± 0.025	0.466 ± 0.027	0.541 ± 0.02	0.425 ± 0.0078
LVFSFFFLFFFM	0.449 ± 0.053	0.47 ± 0.029	0.375 ± 0.03	0.46047 ± 0.00043	0.375 ± 0.027	0.287 ± 0.05	0.442 ± 0.11	0.394 ± 0.044
LVLFYLWSSVWA	0.4 ± 0.014	0.445 ± 0.0055	0.29 ± 0.032	0.4726 ± 0.0018	0.251 ± 0.01	0.279 ± 0.034	0.441 ± 0.0095	0.3819 ± 0.0021
LVLLIQKFLTDK	0.7442 ± 0.0063	0.7187 ± 0.0016	0.609 ± 0.024	0.695 ± 0.079	0.59 ± 0.017	0.617 ± 0.052	0.675 ± 0.015	0.553 ± 0.086
LVLSFVMLVSGH	0.183 ± 0.014	0.313 ± 0.02	0.202 ± 0.013	0.384 ± 0.031	0.149 ± 0.0053	0.185 ± 0.024	0.343 ± 0.024	0.289 ± 0.012

Sequence	protein stability index (Saccharomyces cerevisiae [1]; [3])	protein stability index (Saccharomyces cerevisiae [1]; [4])	protein stability index (Saccharomyces cerevisiae [1]; [5])	protein stability index (Saccharomyces cerevisiae [1]; [6])	protein stability index (Saccharomyces cerevisiae [1]; [7])	protein stability index (Saccharomyces cerevisiae [1]; [8])	protein stability index (Saccharomyces cerevisiae [1]; [9])	protein stability index (Saccharomyces cerevisiae [2])
LVPVWVGLRVLF	0.422 ± 0.021	0.429 ± 0.0053	0.354 ± 0.042	0.537 ± 0.015	0.347 ± 0.018	0.328 ± 0.022	0.506 ± 0.014	0.421 ± 0.065
LVSCGNFLVFCF	0.299 ± 0.0056	0.311 ± 0.025	0.234 ± 0.021	0.387 ± 0.0079	0.211 ± 0.0058	0.234 ± 0.013	0.355 ± 0.0037	0.324 ± 0.0072
LVSSYVPFFFAL	0.6057 ± 0.0033	0.717 ± 0.046	0.664 ± 0.0071	0.752 ± 0.011	0.25 ± 0.0073	0.29 ± 0.031	0.388 ± 0.015	0.342 ± 0.011
LVSVLLLFWFLF	0.4146 ± 0.00025	0.368 ± 0.014	0.358 ± 0.05	0.515 ± 0.037	0.344 ± 0.021	0.324 ± 0.013	0.475 ± 0.017	0.394 ± 0.069
LVYCWFAEYFLV	0.323 ± 0.043	0.561 ± 0.011	0.448 ± 0.027	0.586 ± 0.0069	0.0883 ± 0.016	0.106 ± 0.0044	0.0859 ± 0.017	0.169 ± 0.027
LVYLVCAYSECE	0.44 ± 0.015	0.463 ± 0.039	0.275 ± 0.039	0.477 ± 0.0062	0.242 ± 0.019	0.274 ± 0.0093	0.477 ± 0.0088	0.332 ± 0.02
LWCLVWGGVWGV	0.458 ± 0.014	0.5417 ± 0.005	0.353 ± 0.041	0.555 ± 0.0028	0.34 ± 0.0085	0.343 ± 0.039	0.508 ± 0.012	0.447 ± 0.009
LWFVIYLLCFFV	0.394 ± 0.015	0.395 ± 0.0045	0.328 ± 0.022	0.482 ± 0.024	0.285 ± 0.0031	0.291 ± 0.04	0.452 ± 0.0078	0.348 ± 0.029
MFFSWVLSISLT	0.0242 ± 0.0074	0.058 ± 0.011	0.0335 ± 0.0093	0.0704 ± 0.0084	0.024 ± 0.0024	0.0234 ± 0.0076	0.0577 ± 0.011	0.0454 ± 0.021
MIVAIQLVDHPP	0.459 ± 0.033	0.547 ± 0.0094	0.414 ± 0.013	0.522 ± 0.0075	0.409 ± 0.016	0.426 ± 0.028	0.509 ± 0.034	0.484 ± 0.044
MLECIIHLTITR	0.417 ± 0.072	0.577 ± 0.095	0.431 ± 0.038	0.507 ± 0.011	0.4306 ± 0.0039	0.444 ± 0.038	0.491 ± 0.019	0.483 ± 0.025
MLSVVSFVSCTC	0.181 ± 0.0023	0.17 ± 0.021	0.197 ± 0.017	0.29 ± 0.0063	0.1631 ± 0.0015	0.191 ± 0.027	0.237 ± 0.0063	0.255 ± 0.012
MRVYLVLWADSC	0.236 ± 0.034	0.345 ± 0.026	0.197 ± 0.015	0.361 ± 0.017	0.19 ± 0.015	0.184 ± 0.0039	0.337 ± 0.00094	0.247 ± 0.058
MSIWKIFIWRLG	0.524 ± 0.017	0.627 ± 0.037	0.494 ± 0.019	0.648 ± 0.028	0.132 ± 0.013	0.153 ± 0.024	0.2694 ± 0.00052	0.263 ± 0.019
MVAHTVRVKCGI	0.638 ± 0.049	0.66 ± 0.021	0.544 ± 0.031	0.674 ± 0.0096	0.557 ± 0.016	0.56 ± 0.056	0.6622 ± 0.0012	0.547 ± 0.13
MVVILLVHWEYV	0.15 ± 0.011	0.222 ± 0.032	0.172 ± 0.035	0.321 ± 0.017	0.17 ± 0.0031	0.171 ± 0.025	0.2768 ± 0.0012	0.262 ± 0.017
MWFFFICYFLSV	0.277 ± 0.0059	0.361 ± 0.034	0.246 ± 0.049	0.411 ± 0.015	0.262 ± 0.021	0.249 ± 0.02	0.369 ± 0.0076	0.263 ± 0.0072
MYESIRILVNKV	0.62 ± 0.015	0.707 ± 0.016	0.62 ± 0.022	0.697 ± 0.015	0.226 ± 0.0021	0.326 ± 0.038	0.491 ± 0.02	0.457 ± 0.052
NFCVLLQFCVLV	0.437 ± 0.023	0.477 ± 0.023	0.36 ± 0.024	0.4832 ± 0.0002	0.364 ± 0.017	0.36 ± 0.02	0.448 ± 0.0074	0
